The values that follow come from patent US20040127419A1 (Amgen, published 2004).

This test has as its target T1, mature human glial cell line-derived neurotrophic factor (hGDNF), CHO cell-expressed (human, UniProt P39905 78-211, glycosylated (N-linked sugar, about 4.5 kDa)).
T1 construct: The native protein is a disulfide-bonded homodimer (44 kDa on non-reducing gels); also called mature GDNF; 22 kDa band
T1 chain: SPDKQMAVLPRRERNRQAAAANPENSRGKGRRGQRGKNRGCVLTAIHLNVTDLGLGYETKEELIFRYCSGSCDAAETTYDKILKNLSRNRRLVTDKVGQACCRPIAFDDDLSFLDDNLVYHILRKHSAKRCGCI
Description: purification from CHO conditioned medium, Western blot and N-terminal sequencing; disulfide-bonded dimer. The method, then:
The following process describes the purification of CHO-expressed GDNF and a CHO-derived clipped GDNF homodimer, from one liter of conditioned media. Because of significant protease action in the CHO medium, clipping the chain at residue 31, the procedure may include the use of a protease inhibitor during purification.
Serum free conditioned media was made 20 mM 2-[N-Morpholino] ethane sulfonate (MES), pH 6.0, by adding one fiftieth volume of 1 M MES, pH 6.0. Twenty five milliliters of SP Sepharose Big Bead resin (Pharmacia), equilibrated with 20 mM MES, pH 6.0, was added and stirred at 4° C. for one hour. The resin was collected by allowing it to settle and decanting off the conditioned media. The decanted media was filtered through a fritted disc filter to recover any unsettled resin. […] Protein was eluted with a 300 ml gradient from A buffer to 1.0 M NaCl, 20 mM MES, pH 6.0 (B buffer), at a flow rate of 0.2 column volumes/minute with absorbance monitored at 280 nm. […] The presence of GDNF in the fractions was detected by Western blotting analysis. […]
Fractions containing GDNF from Step 2 were resolublized in one milliliter of 0.15 M NaCl, 10 mM Tris, pH 8.0, and applied to a 0.75×7.5 cm TSK-Gel 5WP high performance S column (Toso Haas). […] One minute fractions were collected with absorbance measured at 280 nm. […]
On the technique in general: Immunoblotting shows a protein as a band on a membrane.

B1: [Arg32-Ile134] truncated GDNF protein, CHO cell-derived (ligand)
chain: RGQRGKNRGCVLTAIHLNVTDLGLGYETKEELIFRYCSGSCDAAETTYDKILKNLSRNRRLVTDKVGQACCRPIAFDDDLSFLDDNLVYHILRKHSAKRCGCI
modifications: glycosylated (N-linked and O-linked sugars)
notes: It forms a disulfide-bonded homodimer (36 kDa) or a heterodimer with mature GDNF (40 kDa); A later purification also found a [Lys37-Ile134] form; also called clipped GDNF; 18 kDa band
As to B1, the binding result is recorded as “binds”.
